Test results taken from the nanobody polyreactivity screen of Harvey et al. (2022).

Assay: yeast display, Sf9 membrane polyspecificity reagent, FACS + sequencing; frameworks hold sequencing errors
Summary of the method: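 In a synthetic yeast display library (Saccharomyces cerevisiae BJ5465), nanobody expression was induced with galactose for 36–48 hours. FACS gates were set low and high (top ~1%) using anti-HA fluorescence for expression and streptavidin fluorescence for binding of the Sf9 membrane reagent. Each polyreactivity label is drawn from the gate of origin.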

Sequence | polyreactivity (PSR sort gate)
QVQLVESGGGLVQAGGSLRLSCAASGFTFGVYAMGWYRQAPGKERDLVAAISTTVGSTYYADSVKGRFTISRDNAKNTVYLQMNSLKPEDTAVDYCAAEYTGYINYYIYEYWGQGTQVTVSS | low polyreactivity
QVQLVESGGGLVQAGGSLRLSCAASGFTFGVYAMGWYRQAPGKERELDAAISTTVGSTYYADSVKGRFTISRDNAKNTVYLQMNSLKPEDTAVYYCAAEYTGYINYYIYEYWGQGTQVTVSS | low polyreactivity
QVQLVESGGGLVQAGGSLRLSCAASGFTFGYNAMGWYRQAPGKERELVAAISRSGGRTYYADSVKGRFTISRDNAKNTVYLQMNSLKPEDTAVYYCARRYRDYGRYGYWGQGTQVTVSS | high polyreactivity
QVQLVESGGGLVQAGGSLRLSCAASGFTFGYNAMGWYRQAPGKERELVAAITSGGSTNYADSVKGRFTISRDNAKNTVYLQMNSLKPEDTAVYYCATGVRPWRKKPVEFYHRGQGTQVTVSS | low polyreactivity
QVQLVESGGGLVQAGGSLRLSCAASGFTFGYNAMGWYRQAPGKERELVAVINKSGGSTYYADSVKGRFTISRDNAKNTVYLQMNSLKPEDTAVYYCAATYNGWKRYYYWGQGTQVTVSS | high polyreactivity
QVQLVESGGGLVQAGGSLRLSCAASGFTFGYYAMGWSRQAPGKERELVAAISWSGSRTYYADSVKGRFTISRDNAKNTVYLQMNSLKPEDTAVYYCAAQRYRYLYTSTGWQRYDYYYWGQGTQVTVSS | high polyreactivity
QVQLVESGGGLVQAGGSLRLSCAASGFTFGYYAMGWYRQAPGKERELVAAINWSGVNTNYADSVKGRFTISRDNEKNTVYLQMNSLKPEDTAVYYCAADAGYDGYGYWGQGTQVTVSS | low polyreactivity
QVQLVESGGGLVQAGGSLRLSCAASGFTFGYYAMGWYRQAPGKERELVAAISSSGGSTYYADSVKGRFTISRDNAKNTVYLQMNSLKQEDTAVYYCSTGFLQNYYKYSSSFRFYYWGQGTQVTVSS | high polyreactivity
QVQLVESGGGLVQAGGSLRLSCAASGFTFGYYAMGWYRQAPGKERELVASISSGGSTNYADSVKGRFTISRDNAKNTVYLQMNSLKPEDTAVYYCNKRAYYGRYDYWGQGTQVTVSS | high polyreactivity
QVQLVESGGGLVQAGGSLRLSCAASGFTFGYYAMGWYRQAPRKERELVAAISSSSGRTHYADSVKGRFTISRDNAKNTVYLQMNSLKPEDTAVYYCAAEFYYLYYYWGQGTQVTVSS | high polyreactivity
QVQLVESGGGLVQAGGSLRLSCAASGFTFHGYTMGWYRQAPGKERELVAAITSGGGTNYADSVKGRFTISRVNAKNTVYLQKNSLKPEDTAVYYCAAVGTVPRKQRYHSYIDYDYWGQGTQVTVSS | low polyreactivity
QVQLVESGGGLVQAGGSLRLSCAASGFTFHNNVMGWYRQATGKERELVATISKSGGSTYYADSVKGRFTISRDNAKNTVYLQMNSLKPEDTAVYYCARRYRDYDYWGQGTQVTVSS | high polyreactivity
QVQLVESGGGLVQAGGSLRLSCAASGFTFHRYAMGWYRQAPGKERELVAAISSRGGSTYYADSVKGRFTISRDNAKNTVYLQMNSLKPEDTAVYYCAARWPHRYYSSYYGYDYWGQGTQVTVSS | high polyreactivity
QVQLVESGGGLVQAGGSLRLSCAASGFTFHTYAMGWYRQAPGKERELVAAIDSSGGITYYADSVKGRFTISRDTAKNTVYLQMNSLKPEDTAVYYCAAVFLLFGFEWSYDYWGQGTQVTVSS | low polyreactivity
QVQLVESGGGLVQAGGSLRLSCAASGFTFHYNAMGWYRQAPGKERELVAAITSGGSTYYADSVKGRFTISRDNAKNTVYLQMNSLKPEDTAVYYCNKLYYRYHHNYDYWGQGTQVTVSS | high polyreactivity
QVQLVESGGGLVQAGGSLRLSCAASGFTFIDYAMGWSRQAPGKERELVAAITRDGGSTYYADSVKGRFTISRDNANNTVYLQMNRLKPEDTAVYYCATVRRVQHWVWYWLWRYDYWGQGTQVTVSS | high polyreactivity
QVQLVESGGGLVQAGGSLRLSCAASGFTFIFNAMGWYREAPGKERELVAAITWGGASTDYADSVKGRFTISRDNAKNTVNLQMKSLKPEDTAVYYCAKDNWDNPRPTSEMDYWGQGTQVTVSS | low polyreactivity
QVQLVESGGGLVQAGGSLRLSCAASGFTFIGYAMGWNRQAPGKERELVADITYSGSSTYYADSVKGRFTISRDNAKNTVYFQMNSLKPEDTAVYYCAAEAYYYWFDVVYWGQGSQVTVSS | low polyreactivity
QVQLVESGGGLVQAGGSLRLSCAASGFTFIGYAMGWSRPAPGKERELVAAITWRGGRTYYADSVKGRFSISRDNAKNTVYLQMNSLKTEETAVYYCAADGYTVGNSYYWGHGTQVTVSS | high polyreactivity
QVQLVESGGGLVQAGGSLRLSCAASGFTFIGYAMGWYRQAPGKERELVAAITQSGGSTFYADSVKGRFTISRDNAKNTVYLQMNSLKPEDTAVYYCNAYRKFRYWGQGTQVTVSS | low polyreactivity

Sequence | polyreactivity (PSR sort gate)
QVQLVESGGGLVQAGGSLRLSCAASGFTFIHYGMGWYRQAPGKERELVAAISSRGGRTYYADSVKGRFTISRDNAKNTVYLQMNSLKPEDTAVYYCNRDYAVISYGEYDSWGQGTQVTVSS | high polyreactivity
QVQLVESGGGLVQAGGSLRLSCAASGFTFIKNAMGWYRPAPGKERELVAAINSGGRTYYADSVKGRFTISRDNAKNTVYFQMNSLIPEDTAVYYCAARYTRDYYWGQGTQVTVSS | high polyreactivity
QVQLVESGGGLVQAGGSLRLSCAASGFTFIKYAMGWYRQAPGKEREFVATISWNGGNTYYADSVKGRFTISRDNAKNTVYLQMNSLKPEDTAVYYCAARVKYRTRGGTVVSYDYWGQGTQVTVSS | high polyreactivity
QVQLVESGGGLVQAGGSLRLSCAASGFTFIKYAMGWYRQAPGKEREFVSTISWNGGNTYYADSVKGRFTISRDNAKNTVYLQINSLKPEDTAVYYGAARVKYRTRGGTVVSYDYWGQGTQVTVSS | high polyreactivity
QVQLVESGGGLVQAGGSLRLSCAASGFTFINYAMGWYRQAPGKERELVAAISSSSDRTYDADSVKGRFTISRDNAKNTVYLQMNSLKPEDTAVYYCAAYAQKRYYWGQGTQVNVSS | high polyreactivity
QVQLVESGGGLVQAGGSLRLSCAASGFTFIRYAMGWYRQAPGKERELVAAIRGTGTSTYYADSVKGRFTISRDNAKNTVYLQMNSLKPEDTAVYYCNKVAGRSPYTRYDYWGQGTQVTVSS | low polyreactivity
QVQLVESGGGLVQAGGSLRLSCAASGFTFISNAMGWYRQAPGKERELVAAISSSGGRTYYADSVKGRFTSSRDNAKNTVYLQMNSLKPEDTAVYYCNADRSLLYSRKIEYDYWGQGTQVSVSS | low polyreactivity
QVQLVESGGGLVQAGGSLRLSCAASGFTFITNAMGWYRQAPGKERELVAAISSSGGRTYYADSVKGRFTISRDNAKNTVYLQMNSLKPEDTAVYYCNADRSLLYSRKIEYDYWGQGTQVTVSS | low polyreactivity
QVQLVESGGGLVQAGGSLRLSCAASGFTFIYAMGWYRQAPGTERELVAAITRSGGSTYYADSVKGRFTISRDNAKNTVYLQMNSLKPEDTAVYYCAAEAVIYYSSYFEYYYWGQGTQVTVSS | high polyreactivity
QVQLVESGGGLVQAGGSLRLSCAASGFTFIYYAMGWYRQAPGKERELVAAIRWSGGSTYYADSVKGRFTISRDNAKNTVYLQMNSLKPEDTAVYYCAARAIYKSKYDYWGQGTQVTVSS | high polyreactivity
QVQLVESGGGLVQAGGSLRLSCAASGFTFKAYAMGWYRQAPGKERELVAAITYSGGSTYYADSVKGRFTISRDNAKNTVYLQMNSLKPEDTAVYYCNADSDLDLYWKMDYWGQGTQVTVSS | low polyreactivity
QVQLVESGGGLVQAGGSLRLSCAASGFTFKFYAMGWYRQAPGKEMEFVAAISGSGGSTYYADSVKRRFTISRDNAKNTVYLQMNSLKPEDTAVYYCAAEVPGKPYRRSRYSFRHDYWGQGTQVTVSS | low polyreactivity
QVQLVESGGGLVQAGGSLRLSCAASGFTFKGNTMGWYRQAPGKERELVATITRGGTTYYADSVKGRFTISRDNAKNTVYLQMNSLKPEDTSVYYCAAVVYRPYRWQYDYWGQGTQVTVSS | high polyreactivity
QVQLVESGGGLVQAGGSLRLSCAASGFTFKHYAMGWYRQAPGKEREFVAAITGSGGSTYYADSVKGRFTISRDNAKITVYLEMNSLKPEDTAVYYCAASDVSRYRPYRRFDYWGQGTQVTVSS | high polyreactivity
QVQLVESGGGLVQAGGSLRLSCAASGFTFKKNAMGWYRQAPGKERELVDAISISGGSTYYADSVKGRFTISRDNAKNTVYLQMNSLKPEDTAVYYCAAVYISRNFFGRARGDYWGQGTQVTVSS | low polyreactivity
QVQLVESGGGLVQAGGSLRLSCAASGFTFKRNAMGWYRQAPGKERELVAAISWSGSRTYADSVKGRFTISRDNAKNTVYLQMNSLKPEDTAVYYCAASPGRRRRPYASLIRYDYWGQGTQVTVSS | high polyreactivity
QVQLVESGGGLVQAGGSLRLSCAASGFTFKRYAMGWYRQAPGKERELVAAISWSGGSTYYADSVKGRFTISRDNAKNTVYLQMNSLKPEDTAVYYCAADGGSTEEYYYWGQGTQVTVST | high polyreactivity
QVQLVESGGGLVQAGGSLRLSCAASGFTFKTYVMGWYRQAPGKERELVAAISRRGGSTHYADSVKGRFTISRDNAKNTVYLQMNSLKPEDTAVYYCARRWYSTWWYGYWGQGTQVTVSS | high polyreactivity
QVQLVESGGGLVQAGGSLRLSCAASGFTFKWYTMGWYRQAPGKERELVAGISRRGGSTYYADSVKGRFTISRDNAKNTVYLQMNSLKPEDTAVYYCAARYTWRRAGYYYWGQGTQVTVSS | high polyreactivity
QVQLVESGGGLVQAGGSLRLSCAASGFTFKYNVMGWYRQAPGKERELVSAISKRGGNTYYADSVKGRFTISRDIAKNTVYLQMNSLKPVDTAVYYCAADPTSPETSGQGYDYWGQGTQVTVSS | high polyreactivity
